The target in the series is Sam68 QUA1-KH (UniProt Q07666 96-260). Nature of the series: EMSA; 40 uM RNA, 10-200 uM protein; NMR buffer 20 mM NaHPO4 pH 6.5, 100 mM NaCl, 1 mM beta-mercaptoethanol, 50 mM L-Arg, 50 mM L-Glu; 19F NMR of free RNA at 303 K, with or without 40% HeLa nuclear extract; EMSA 14% PAGE in TBE pH 7.6, 4 C. As to conditions: protein: recombinant; tags: N-terminal His6-TEV (pLEICS-01), TEV-treated; chain copies: 2; single-stranded. (In EMSA bound probe runs differently from free probe, usually more slowly.)
Sam68 QUA1-KH, sequence (Q07666 96-260): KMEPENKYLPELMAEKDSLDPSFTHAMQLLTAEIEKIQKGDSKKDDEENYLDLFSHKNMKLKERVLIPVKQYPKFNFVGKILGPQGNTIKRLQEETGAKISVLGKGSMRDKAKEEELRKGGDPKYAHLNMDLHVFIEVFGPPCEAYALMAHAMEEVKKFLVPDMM

As for UUACAGGGUUUUAGACAAAAU (ssRNA) [unmodified RNA (SMN2 21-mer)], the binding result was “binds”.

The values are drawn from PMC10899400, “2′-19F labelling of ribose in RNAs: a tool to analyse RNA/protein interactions by NMR in physiological conditions”.
